The values below come from US20070172470.

Series [1] concerns the target Ser 5 phosphopeptide (28 aa CTD peptide, 4 heptad repeats).
The target of series [2] is Ser 2 phosphopeptide (28 aa CTD peptide, 4 heptad repeats).
The target in series [3] is GST-CTDo.
Series [4] concerns the target T1, RAP74, P35269.
T1 chain: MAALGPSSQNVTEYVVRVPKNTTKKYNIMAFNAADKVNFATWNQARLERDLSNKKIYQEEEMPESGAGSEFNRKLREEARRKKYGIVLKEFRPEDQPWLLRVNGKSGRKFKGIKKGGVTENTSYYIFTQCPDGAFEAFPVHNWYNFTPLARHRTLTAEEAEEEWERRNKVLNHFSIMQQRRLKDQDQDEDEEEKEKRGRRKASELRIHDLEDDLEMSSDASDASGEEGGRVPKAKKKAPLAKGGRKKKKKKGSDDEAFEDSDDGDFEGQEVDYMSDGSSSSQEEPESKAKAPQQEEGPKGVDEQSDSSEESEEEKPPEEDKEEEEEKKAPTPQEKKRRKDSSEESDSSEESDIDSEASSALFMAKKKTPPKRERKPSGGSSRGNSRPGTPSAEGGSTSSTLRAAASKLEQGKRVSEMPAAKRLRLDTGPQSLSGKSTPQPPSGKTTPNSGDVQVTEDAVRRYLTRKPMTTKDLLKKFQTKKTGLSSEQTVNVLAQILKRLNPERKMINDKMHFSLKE

B1: GST-SCP1 214 (protein)
chain: MMGRPCLLTAGRPCLWRRMAPSLRQTPVQYLLPEAKAQDSDKICVVIDLDETLVHSSFKPVNNADFIIPVEIDGVVHQVYVLKRPHVDEFLQRMGELFECVLFTASLAKYADPVADLLDKWGAFRARLFRESCVFHRGNYVKDLSRLGRDLRRVLILDNSPASYVFHPDNAVPVASWFDNMSDTELHDLLPFFEQLSRVDDVYSVLRQPRPGS
For B1, the “phosphate released from phosphopeptide (malachite green)” value in series [1] and in series [2] was “SCP1 preferentially dephosphorylates the Ser 5 phosphopeptide compared to the Ser 2 phosphopeptide” in each case. Also, in series [3], the “CTD phosphatase assay (mobility shift of GST-CTDo to GST-CTDa)” value is “SCP1 dephosphorylates rCTDo and RNAP IIO with comparable efficiency”.

B2: SCP1 261 (protein)
chain: MDSSAVITQISKEEARGPLRGKGDQKSAASQKPRSRGILHSLFCCVCRDDGEALPAHSGAPLLVEENGAIPKTPVQYLLPEAKAQDSDKICVVIDLDETLVHSSFKPVNNADFIIPVEIDGVVHQVYVLKRPHVDEFLQRMGELFECVLFTASLAKYADPVADLLDKWGAFRARLFRESCVFHRGNYVKDLSRLGRDLRRVLILDNSPASYVFHPDNAVPVASWFDNMSDTELHDLLPFFEQLSRVDDVYSVLRQPRPGS
Turning to B2, the “CTD phosphatase activity (dephosphorylation of RNAP IIO prepared by TFIIH), with and without 7 pmol RAP74” value in series [4] is “RAP74 shifted the dose response curve for SCP1 catalyzed dephosphorylation of RNAP IIO to an approximately 10-fold lower concentration”.

B3: FCP1 (protein)
chain: MEVPAAGRVPAEGAPTAAVAEVRCPGPAPLRLLEWRVAAGAAVRIGSVLAVFEAAASAQSSGASQSRVASGGCVRPARPERRLRSERAGVVRELCAQPGQVVAPGAVLVRLEGCSHPVVMKGLCAECGQDLTQLQSKNGKQQVPLSTATVSMVHSVPELMVSSEQAEQLGREDQQRLHRNRKLVLMVDLDQTLIHTTEQHCQQMSNKGIFHFQLGRGEPMLHTRLRPHCKDFLEKIAKLYELHVFTFGSRLYAHTIAGFLDPEKKLFSHRILSRDECIDPFSKTGNLRNLFPCGDSMVCIIDDREDVWKFAPNLITVKKYVYFQGTGDMNAPPGSRESQTRKKVNHSRGTEVSEPSPPVRDPEGVTQAPGVEPSNGLEKPARELNGSEAATPRDSPRPGKPDERDIWPPAQAPTSSQELAGAPEPQGSCAQGGRVAPGQRPAQGATGTDLDFDLSSDSESSSESEGTKSSSSASDGESEGKRGRQKPKAAPEGAGALAQGSSLEPGRPAAPSLPGEAEPGAHAPDKEPELGGQEEGERDGLCGLGNGCADRKEAETESQNSELSGVTAGESLDQSMEEEEEEDTDEDDHLIYLEEILVRVHTDYYAKYDRYLNKEIEEAPDIRKIVPELKSKVLADVAIIFSGLHPTNFPIEKTREHYHATALGAKILTRLVLSPDAPDRATHLIAARAGTEKVLQAQECGHLHVVNPDWLWSCLERWDKVEEQLFPLRDDHTKAQRENSPAAFPDREGVPPTALFHPMPVLPKAQPGPEVRIYDSNTGKLIRTGARGPPAPSSSLPIRQEPSSFRAVPPPQPQMFGEELPDAQDGEQPGPSRRKRQPSMSETMPLYTLCKEDLESMDKEVDDILGEGSDDSDSEKRRPEEQEEEPQPRKPGTRRERTLGAPASSERSAAGGRGPRGHKRKLNEEDAASESSRESSNEDEGSSSEADEMAKALEAELNDLM
Consider B3, for which the “phosphate released from phosphopeptide (malachite green)” value is “Mammalian FCP1, within a comparable concentration range, did not act on either phosphopeptide” in series [1] and “Mammalian FCP1, within a comparable concentration range, did not act on either phosphopeptide” in series [2]. The “CTD phosphatase assay (mobility shift of GST-CTDo to GST-CTDa)” value in series [3] was “FCP1 does not dephosphorylate rCTDo even at concentrations 100 times higher than that required to dephosphorylate RNAP IIO”.
